The source of these data is US11254745 (CROWN BIOSCIENCE, dated 2022).

The target in test [1] is T1, human CD4 on 293T cells stably expressing CD4 (CD4-293T) (human, UniProt P01730 26-458).
T1 construct: whole, on cells; also called 293T-CD4 cells; hCD4 (FACS)
Nature of the test: FACS, chimeric antibody on CD4-293T cells. The method, then:
(§1) Cell binding analysis of anti-CD4 antibody was performed using 293T cell line stably expressing CD4 (CD4-293T). 2*10^5 CD4-293T cells were added to each well of 96-well plate and incubated with the indicated hybridoma supernatant or a serial concentrations of purified antibody (starting from 20 μg/mL) at 4° C. for 1 h. After the cells were washed three times with FACS buffer, the secondary antibody (PE Goat anti-mouse: 1:200) was added to the cells at 100 μl/well, and incubated at 4° C. for 40 min. Cells were washed three times with FACS buffer and analyzed by FACS Array. The binding EC50 of purified antibody was calculated with GraphPad Prism 5.
(§2) Freestyle 293 cells (200 mL at 1*10^6/mL) were transfected with 100 µg of each of the chimeric heavy and light chain expression plasmids and cultured for 6 days at 37° C. The chimeric antibody in the supernatant was then purified with Protein-A column (GE healthcare). Binding of the chimeric antibody with CD4 was measured by ELISA (FIG. 3, Table 5) and FACS (FIG. 4, Table 6), using the similar methods described above in Example 2.
For orientation: Flow cytometry measures light scatter and fluorescence of single cells or particles in a stream.

In test [2] the target is T2, extracellular domain of hCD4 fused with a histidine tag (hCD4-HisTag) (human, UniProt P01730 26-396).
T2 construct: extracellular domain; also called human CD4-HisTag; not shown: histidine tag
Nature of the test: Biacore T200 SPR, antibody captured on Protein A, CD4-HisTag analyte, 1:1 fit, 25 C. The method, then: The binding kinetics between CD4 and CD4 antibodies were measured by Biacore™ analysis, which was performed at 25° C. on a Biacore™ T200 instrument. Protein A (GE, Cat. No:29139131-AA) was diluted with 10 mM pH 5.0 sodium acetate and immobilized onto reference and experiment flow cells of a CM5 biosensor chip to around 15000 RU using an amine coupling kit (GE, BR10050). In the beginning of each cycle, diluted test antibody (1.5 µg/mL) was injected over experiment flow cell for 1 minute to be captured. CD4-HisTag analyte series were prepared by diluting the stocks with running buffer to 100 nM followed by 2-fold serial dilution in the same buffer down to 0.78 nM. Analytes were injected in series over the reference and experiment flow cells for 3 minutes at a flow rate of 30
μL/minute. Running buffer (PBS with 0.05% P20) was allowed to flow over for 10 minutes at a flow rate of 30 μL/minute. At the end of each cycle, the biosensor surface was regenerated with 3-minute injection of 10 mM pH 2.0 Glycine-HCl buffer at a flow rate of 10 μL/minute. For each analyte sample injection (i.e., each cycle), binding responses obtained from the experimental biosensor surface were double referenced by subtracting simultaneously recorded responses from the reference surface followed by additional subtraction of responses from a single referenced running buffer sample. The association and dissociation rate constants (ka and kd) were determined simultaneously by fitting double-referenced sensorgrams of the entire titration series to Langmuir model (1:1) using Biaevaluation software. The dissociation constant, KD, was calculated from the determined rate constants by the equation KD=kd/ka.
(SPR reads the build-up and loss of mass on a sensor chip optically.)

Test [3] has as its target T1, human CD4 on 293T cells stably …. Nature of the test: FACS on 293T cells expressing human CD4, MFI; table under the graph (unit from the graph's axis); Table 6 of the text gives this value to 10C2. The method, then:
as §1, §2

The target of test [4] is T3, extracellular domain of hCD4 fused with human Fc tag (hCD4-hFc) (human, UniProt P01730 26-396).
T3 construct: extracellular domain; also called human CD4-hFc; hCD4 (ELISA); not shown: human Fc tag
Nature of the test: ELISA, chimeric antibody on hCD4, method similar to Example 2. The method, then: (§3) Example 2: Selection of the Anti-hCD4 Hybridoma Antibodies Based on Binding and Gene Reporter Assays The binding interaction between hybridoma antibody and human CD4-hFc was measured by ELISA. 96-well plates (Costar, Cat. No:9018) were coated with 100 μL of 2 μg/ml CD4-hFc (CrownBio) in PBS buffer (Hyclone, Cat. No: SH30256.01B) overnight at 4° C. The wells were aspirated and non-specific binding sites were blocked by adding 200 μL of blocking buffer containing 1% (w/v) of bovine serum albumin (BSA, Roche, Cat. No: 738328) and incubating for 1 hour at 37° C. After the plates are washed three times with PBS buffer containing 0.05% (v/v) Tween™ 20 (Sigma, Cat. No: P1379), 100 μL hybridoma supernatant or a serial concentrations of purified antibody (starting from 20 μg/mL) diluted in blocking buffer was added to each well and incubated at room temperature for 1 hour. The plates were washed and incubated with 100 μL/well of Goat anti-Mouse IgG (Thermo, Cat. No:31432) in blocking buffer for 60 min. After the plates were washed, 100 μL/well of substrate solution TMB (eBioscience, Cat. No:00-4201-56) was added, and the plates were incubated for 2 min at room temperature before 100 μL/well of 2N H_2SO_4 was added to stop the reaction. The colorimetric signals were monitored at 450 nm using a SpectraMax Plus microplate reader (Molecular Devices). For the purified antibody, data were analyzed using GraphPad Prism 5 to calculated the $EC50$.
as §2
In general terms: ELISA stands for enzyme-linked immunosorbent assay.

Test [5] concerns the target T3, extracellular domain of hCD4 fused with …. Put plainly: ELISA, purified hybridoma antibody on coated CD4-hFc. The method, then: as §3
The target in test [6] is T1, human CD4 on 293T cells stably …. Put plainly: FACS on 293T cells expressing human CD4, MFI; table under the graph (unit from the graph's axis); Table 6 of the text gives this value to 2B6. The method, then: as §1, §2

Numbering of substitutions follows the chain as printed.

B1: Chimeric 33E12 anti-CD4 antibody (antibody, human IgG1, kappa, V domains shown)
VH: DVQLQESGPGLVKPSQSLSLTCTVTGYSITSDYAWNWIRQFPGNKLEWMGYISYSGITSYNPSLKSRFSITRDTSKNQFFLQLNSVTTEDTATYYCARLDSSGYGAMDYWGQGTSVTVSS
VL: DIVLTQSPASLPVSLGQRATISCRASQSVSTSSYSYMHWYQQKPGQPPKLLIRYASNLESGVPARFSGSGSGTDFTLNIHPVEEEDTATYYCQHSWDFPLTFGAGTKLELKR
Turning to B1, the EC50 in test [1] came to 0.351 µg/mL; in test [3], 0.882 µg/mL; in test [4] it was 0.0204 µg/mL. Moreover, the affinity in test [2], expressed as Kd, was 4.25 nM. Besides, the koff in test [2] was 0.00461 s⁻¹. The same molecule came in with a kon in test [2] of 1.09e+06 M⁻¹ s⁻¹.

B2: 33E12 murine hybridoma anti-CD4 antibody (antibody, V domains shown)
VH: B1 VH
VL: DIVLTQSPASLPVSLGQRATISCRASQSVSTSSYSYMHWYQQKPGQPPKLLIRYASNLESGVPARFSGSGSGTDFTLNIHPVEEEDTATYYCQHSWDFPLTFGAGTKLELK
notes: Mouse antibody purified from hybridoma supernatant on Protein A and detected with goat anti-mouse IgG; also called hybridoma clone 33E12
In test [5], B2 registered an EC50 of 0.034 µg/mL.

B3: Chimeric 10C2 anti-CD4 antibody (antibody, human IgG1, kappa, V domains shown)
VH: EVKLQQSGTELMKPGASVKISCKATGYTFSSYWIEWIKQRPGRGLEWIGEILPGSGSTNYNEEFTGRATFTADTFSNTAYMQLSSLTSEDSAVYYCARSVSASNWYFDVWGAGTTVTVSS
VL: B1 VL with L4M, P12A, L50F, R53K, D97E, F98I, L100P, A104G, L110I
As for B3, the EC50 in test [1] turned out to be 0.882 µg/mL. In test [2], this molecule registered a dissociation constant (Kd) of 1.19 nM, a koff of 0.00019 s⁻¹ and a kon of 160000 M⁻¹ s⁻¹. The EC50 in test [4] was 0.0179 µg/mL. Besides, the EC50 in test [6] was found to be 0.669 µg/mL.

B4: Chimeric MT412 anti-CD4 antibody (antibody, human IgG1, kappa, V domains shown)
VH: QIQLVQSGPELKKPGETVKISCKASGYTFTDYSMHWVKQAPGKDLKWMGWINTETGEPTYADDFKGRFAFSLETSASTAYLQINNLKNEDTATYFCAREDYYGHDGFLYWGQGTLVTVSS
VL: DIVMTQSHKFMSTSVGDRVSITCKASQDVVTTVAWYQQKPGQSPKLLIYWASLRHTGVPDRFTGSGSGTDFTLTISNVQFEDLADYFCQQYSSYPYTFGGGTKLEIKR
As to B4, the EC50 in test [1] worked out at 0.515 µg/mL. In addition, in test [2], the Kd is 1.61 nM, the koff came to 0.000941 s⁻¹ and the kon is 586000 M⁻¹ s⁻¹. This molecule registered an EC50 in test [4] of 0.0165 µg/mL.

B5: 10C2 murine hybridoma anti-CD4 antibody (antibody, V domains shown)
VH: B3 VH
VL: B2 VL with L4M, P12A, L50F, R53K, D97E, F98I, L100P, A104G, L110I
notes: also called hybridoma clone 10C2
Molecule B5 had an EC50 in test [5] of 0.0368 µg/mL.

B6: 2B6 murine hybridoma anti-CD4 antibody (antibody, V domains shown)
VH: EVQLQESGPSLVKPSQTLSLTCSVTGDSITSGYWNWIRKFPGHKLEFLGYISFADTTNYNPSLKSRVSITRDTSKNQFDLQLKSVTTEDTATYHCARDDYGYYAMDYWGQGISVTVSS
VL: DIHLTQTTSSLSASLGDRVTIICRASQDIDNYLNWYQLKPDGTLKLLIYYTSRLHSGVPSRFSGSGSGTEYSLTISNLEREDVATYFCQQGNTLPTFGAGTKLELK
notes: also called hybridoma clone 2B6
The molecule B6 yielded an EC50 in test [5] of 0.0261 µg/mL.

B7: 11E12 murine hybridoma anti-CD4 antibody (antibody, V domains shown)
VH: B6 VH with Q5E, G32S, V67I, H94Y, Y100F
VL: B6 VL with H3Y, L4V, D30N, S63G, R80Q
notes: also called hybridoma clone 11E12
Take B7: the EC50 in test [5] was 0.027 µg/mL.

B8: 29B7 murine hybridoma anti-CD4 antibody (antibody, V domains shown)
VH: QVQLQQSGAELAKPGASVKMSCKTSADSLNTHWMHWVKQRPGQGLEWIGYINPYTGSGEYSQKFKGKATLTADISSSTAYMQLISLTSEDSAVYYCAYDSTGAMDYWGQGTSVTVSS
VL: DIKMTQSPSSMYASLGERITITCKASQDINRYLSWFQQKPGKSPKTPIYRADRSVDGVPSRFSGSGSGQDYSLTISSLEYEDMGIYYCQQYDEFPYTFGGGTKLEIK
notes: also called hybridoma clone 29B7
Consider B8, for which, in test [5], the EC50 stood at 0.0334 µg/mL.

As a reminder, the EC50 is the concentration that produces a half-maximal response. Low values mean higher potency in that assay, high ones lower potency in that assay. What is called Kd is the equilibrium constant for the complex coming apart. Lower therefore signals a tighter complex. One may read the koff as a measure of how fast the partners let go of each other. A high value points to a short-lived complex. The term kon denotes a measure of how fast the partners come together.
